± gives the uncertainty stated by the source.
Test: self-splicing fitness, log relative to wild type (ln ratio); higher = more splicing; Tetrahymena group I intron in knt gene, E. coli kanamycin selection, DiMSum; sequences stand for … in CUCUCU…GGAGGGAAAAGUUAUCAGGCAUGCACCUGGUAGCUAGUCUUUAAACCAAUAGAUUGCAUCGGUUUAAAAGGCAAGACCGUCAAAUUGCGGGAAAGGGGUCAACAGCCGUUCAGUACCAAGUCUCAGGGGAAACUUUGAGAUGGCCUUGCAAAGGGUAUGGUAAUAAGCUGACGGACAUGGUCCUAACCACGCAGCCAAGUCCUAAGUCAACAGAUCUUCUGUUGAUAUGGAUGCAGUUCACAGACUAAAUGUCGGUCGGGGAAGAUGUAUUCUUCUCAUAAGAUAUAGUCGGACCUCUCCUUAAUGGGAGCUAGCGGAUGAAGUGAUGCAACACUGGAGCCGCUGGGAACUAAUUUGUAUGCGAAAGUAUAUUGAUUAGUUUUGGAGUACUCGUGGUCG
In short: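 Library with all eight P1ex-region intron nucleotides randomised, intron inside the knt kanamycin-resistance gene on pET-22b(+), in E. coli BL21(DE3). Cells grew overnight at 37°C or 30°C on LB agar with or without 25 μg/mL kanamycin (plus 100 μg/mL carbenicillin, 50 μM IPTG, 0.2% rhamnose), in six replicate transformations. Pooled colonies were amplicon-sequenced on Illumina HiSeq 2500. DiMSum fitness is the error-weighted combination of wild-type-normalised replicate fold changes, kanamycin versus none.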

Sequence	self-splicing fitness (ln) (30 °C)	self-splicing fitness (ln) (37 °C)
ACCGAGCAAUAUUACGCUCC	-2.85 ± 0.39	-1.79 ± 0.44
UAGAAGCAAUAUUACGUAGC	-3.74 ± 0.26	-2.43 ± 0.23
CCACAGCAAUAUUACGGAUU	-3.49 ± 0.11	-3.12 ± 0.15
CAAGAGCAAUAUUACGGCGC	-3.56 ± 0.27	-2.17 ± 0.26
AGAUAGCAAUAUUACGCUCG	-0.0589 ± 0.11	-0.37 ± 0.12
CACCAGCAAUAUUACGGCCG	0.194 ± 0.066	0.251 ± 0.087
AAUUAGCAAUAUUACGACUC	-0.246 ± 0.11	0.0749 ± 0.16
ACGGAGCAAUAUUACGAGGU	-2.12 ± 0.22	-2.5 ± 0.29
GCGUAGCAAUAUUACGGGCA	-0.858 ± 0.2	-0.854 ± 0.17
GCUCAGCAAUAUUACGACUG	-2.66 ± 0.35	0.178 ± 0.19
UCGCAGCAAUAUUACGCACA	-0.0778 ± 0.1	-0.131 ± 0.13
GAUCAGCAAUAUUACGCUGU	-3.03 ± 0.21	-2.38 ± 0.16
UCGGAGCAAUAUUACGCUGC	-3.04 ± 0.38	–
UCCCAGCAAUAUUACGUGAG	-1.52 ± 0.08	-0.669 ± 0.083
UGUUAGCAAUAUUACGAACC	-0.427 ± 0.21	0.133 ± 0.25
UGCUAGCAAUAUUACGAUGU	-4.19 ± 0.46	-2.59 ± 0.38
CAACAGCAAUAUUACGUAAC	-3.71 ± 0.23	-2.41 ± 0.24
CCCCAGCAAUAUUACGCAAG	-3.05 ± 0.14	-2.28 ± 0.19
GAGUAGCAAUAUUACGGCUG	-1.21 ± 0.19	-1.54 ± 0.27
GUGCAGCAAUAUUACGGGUU	-3.37 ± 0.13	-0.752 ± 0.095
CUUGAGCAAUAUUACGGUGU	-3 ± 0.13	-3.01 ± 0.18
AUAAAGCAAUAUUACGCUCU	0.0815 ± 0.089	0.0503 ± 0.1
UCUGAGCAAUAUUACGAAUG	-2.96 ± 0.26	-1.66 ± 0.21
CGGAAGCAAUAUUACGUAGG	-0.48 ± 0.078	-1.38 ± 0.12
CUCAAGCAAUAUUACGGAUC	-3.98 ± 0.43	-2.19 ± 0.27
GACCAGCAAUAUUACGCUUA	-0.722 ± 0.053	0.0868 ± 0.064

Sequence	self-splicing fitness (ln) (30 °C)	self-splicing fitness (ln) (37 °C)
ACAAAGCAAUAUUACGUGAC	-3.4 ± 0.11	-1.37 ± 0.092
AGCAAGCAAUAUUACGGGCC	-3.26 ± 0.23	-2.32 ± 0.22
GAAUAGCAAUAUUACGCCUA	-0.724 ± 0.13	-0.0436 ± 0.16
UUACAGCAAUAUUACGCUUG	-1.23 ± 0.12	-0.126 ± 0.13
GCUUAGCAAUAUUACGCAUA	-1.58 ± 0.14	-0.612 ± 0.11
UCAAAGCAAUAUUACGAGUC	-3.79 ± 0.21	-2.26 ± 0.22
UAGGAGCAAUAUUACGAGUU	-3.51 ± 0.27	-2.48 ± 0.33
UGCGAGCAAUAUUACGUACA	-2.18 ± 0.2	0.427 ± 0.21
CGAAAGCAAUAUUACGACGC	-1.81 ± 0.13	0.0494 ± 0.18
UAUGAGCAAUAUUACGGGCU	–	-1.8 ± 0.47
ACAGAGCAAUAUUACGCAUC	-4.07 ± 0.25	-2.59 ± 0.23
UCGUAGCAAUAUUACGUGUG	-2.3 ± 0.1	-1.41 ± 0.089
AGACAGCAAUAUUACGCGUA	-1.43 ± 0.084	-0.867 ± 0.074
GUGCAGCAAUAUUACGGCAU	-2.93 ± 0.2	-1.64 ± 0.18
UGGGAGCAAUAUUACGGUUA	-3.22 ± 0.37	-1.65 ± 0.16
CUAAAGCAAUAUUACGCGCC	-2.84 ± 0.23	-2.6 ± 0.4
AGACAGCAAUAUUACGGGCU	-1.78 ± 0.11	-0.732 ± 0.13
UCGUAGCAAUAUUACGGGAG	-2.85 ± 0.2	-3.28 ± 0.25
GGCUAGCAAUAUUACGCACC	-1.61 ± 0.24	-1.78 ± 0.26
AGACAGCAAUAUUACGGAAA	-3.32 ± 0.26	-1.48 ± 0.13
GGUAAGCAAUAUUACGCAUG	-2.62 ± 0.12	-1.13 ± 0.11
CGGUAGCAAUAUUACGGAGG	-2.24 ± 0.087	-0.94 ± 0.09
CGGCAGCAAUAUUACGAAUA	–	-2.07 ± 0.27
GACGAGCAAUAUUACGUAAG	-3.67 ± 0.41	-0.245 ± 0.22
UUAGAGCAAUAUUACGAGGA	-2.99 ± 0.34	-0.578 ± 0.32
GAACAGCAAUAUUACGCUGU	-3.8 ± 0.14	-2.99 ± 0.19

Sequence	self-splicing fitness (ln) (30 °C)	self-splicing fitness (ln) (37 °C)
ACCAAGCAAUAUUACGCUAG	-2.03 ± 0.071	-1.52 ± 0.1
CAAAAGCAAUAUUACGCUUA	-3.17 ± 0.23	-2.17 ± 0.15
CCUCAGCAAUAUUACGCAUU	-3.81 ± 0.19	-2.3 ± 0.22
GAGUAGCAAUAUUACGACUU	-3 ± 0.15	-2.63 ± 0.24
GUAGAGCAAUAUUACGCUUC	-3.16 ± 0.45	-1.63 ± 0.27
GGUCAGCAAUAUUACGUCUG	-0.665 ± 0.094	-0.321 ± 0.11
CGUCAGCAAUAUUACGCUAG	-0.963 ± 0.098	-0.795 ± 0.15
CGGGAGCAAUAUUACGCAGG	-3.04 ± 0.36	-0.973 ± 0.27
UUUAAGCAAUAUUACGACUC	-0.391 ± 0.24	-0.881 ± 0.4
UGUGAGCAAUAUUACGGCAA	-1.83 ± 0.23	-1.27 ± 0.25
UACCAGCAAUAUUACGAAAU	-2.64 ± 0.14	-1.26 ± 0.13
ACACAGCAAUAUUACGUACC	-1.43 ± 0.11	-1.12 ± 0.15
GGGGAGCAAUAUUACGCGCG	-1.83 ± 0.15	-0.952 ± 0.17
CCUAAGCAAUAUUACGAUAC	-3.63 ± 0.4	-2.3 ± 0.27
ACCAAGCAAUAUUACGGCCA	-0.654 ± 0.099	0.134 ± 0.12
CAGCAGCAAUAUUACGUAAG	-0.365 ± 0.046	0.0316 ± 0.067
CAAUAGCAAUAUUACGGGUA	-3.9 ± 0.21	-3.12 ± 0.18
CCGAAGCAAUAUUACGACAG	-0.797 ± 0.098	-0.282 ± 0.12
AACCAGCAAUAUUACGCCAA	-2.55 ± 0.14	-1.67 ± 0.16
UUUAAGCAAUAUUACGCGUA	-1.4 ± 0.14	-0.828 ± 0.13
UGAUAGCAAUAUUACGGGCA	-0.911 ± 0.075	0.244 ± 0.12
CAAUAGCAAUAUUACGAGCU	-4.39 ± 0.42	-3.5 ± 0.42
CCAUAGCAAUAUUACGUCCG	-0.229 ± 0.077	0.347 ± 0.13
UCGAAGCAAUAUUACGUUUC	-1.9 ± 0.14	-3.66 ± 0.36
AGGAAGCAAUAUUACGAAGA	-2.9 ± 0.34	-1.61 ± 0.32

Reference: the supplement of paper PMC7877785
